Results taken from patent publication US20170306005A1 (NASCIENT, published 2017).
Changes are numbered by the printed parent chain.

Legend:
[1] = target: T1, human tenascin-C rCd4-His-FBG (rat; human, UniProt P05540 207-392, limits assumed); test: SPR, 25 C
T1 construct: domain: domains 3 and 4; C-terminal FBG fusion; biotinylated in the ELISA and HTRF screens; also called Hu TNC; human TNC rCd4-His-FBG; not shown: 6His tag
T1 sequence (chain (part 1 of 2)): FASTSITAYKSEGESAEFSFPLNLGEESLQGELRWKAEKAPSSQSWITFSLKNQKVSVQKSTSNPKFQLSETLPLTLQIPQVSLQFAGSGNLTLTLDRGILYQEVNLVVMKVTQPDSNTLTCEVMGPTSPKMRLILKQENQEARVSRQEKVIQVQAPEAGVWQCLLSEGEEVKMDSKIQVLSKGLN
T1 sequence (chain (part 2 of 2)): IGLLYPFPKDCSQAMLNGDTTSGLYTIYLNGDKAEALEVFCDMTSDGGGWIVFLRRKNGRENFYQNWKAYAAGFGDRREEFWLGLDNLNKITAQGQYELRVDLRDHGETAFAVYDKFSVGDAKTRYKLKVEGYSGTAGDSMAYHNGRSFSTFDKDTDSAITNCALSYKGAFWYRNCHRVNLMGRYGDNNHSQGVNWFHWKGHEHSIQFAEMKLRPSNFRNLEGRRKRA

human Fc-His-FBG = target: T2, human Fc-His-FBG (human, UniProt P24821 1974-2201); test: cell-based or functional assay
T2 sequence: T1 sequence (chain (part 2 of 2))

[2] = target: T1, human tenascin-C rCd4-His-FBG; test: SPR, captured Fab, 25 C
Method: (§1) Experiments were performed using a BIAcore T100 instrument with CM5 sensor chip according to the protocol provided with the Human Fab Capture Kit (GE, 28-9583-25). […] After reference signal subtraction, the data was fitted to a global 1:1 fit using the T100 BIAevaluation software (FIGS. 6 a-d).

[3] = target: T3, mouse tenascin-C rCd4-His-FBG (rat; mouse, UniProt P05540 207-392, limits assumed); test: SPR, captured Fab, 25 C
T3 construct: domain: domains 3 and 4; C-terminal FBG fusion; biotinylated in the ELISA screen; also called Mu TNC; mouse TNC rCd4-His-FBG; not shown: 6His tag
T3 sequence (chain (part 1 of 2)): T1 sequence (chain (part 1 of 2))
T3 sequence (chain (part 2 of 2)): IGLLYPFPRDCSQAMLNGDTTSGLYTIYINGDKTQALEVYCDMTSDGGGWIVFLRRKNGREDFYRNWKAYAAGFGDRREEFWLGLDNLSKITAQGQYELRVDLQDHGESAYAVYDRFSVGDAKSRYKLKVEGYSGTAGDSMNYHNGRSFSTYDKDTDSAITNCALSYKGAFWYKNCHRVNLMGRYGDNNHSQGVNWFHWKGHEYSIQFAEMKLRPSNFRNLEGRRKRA
Method: as §1

[4] = target: T4, rat tenascin-C rCd4-His-FBG (rat, UniProt P05540 207-392, limits assumed); test: SPR, captured Fab, 25 C
T4 construct: domain: domains 3 and 4; C-terminal FBG fusion; also called Rat TNC; rat TNC rCD4-His-FBG; not shown: 6His tag
T4 sequence (chain (part 1 of 2)): T1 sequence (chain (part 1 of 2))
T4 sequence (chain (part 2 of 2)): T3 sequence (chain (part 2 of 2)) with A72T
Method: as §1

[5] = target: T5, human tenascin-R rCd4-His-FBG (rat; human, UniProt P05540 207-392, limits assumed); test: SPR, captured Fab, 25 C
T5 construct: domain: domains 3 and 4; C-terminal FBG fusion; also called Hu TNR; human TNR rCd4-His-FBG; not shown: 6His tag
T5 sequence (chain (part 1 of 2)): T1 sequence (chain (part 1 of 2))
T5 sequence (chain (part 2 of 2)): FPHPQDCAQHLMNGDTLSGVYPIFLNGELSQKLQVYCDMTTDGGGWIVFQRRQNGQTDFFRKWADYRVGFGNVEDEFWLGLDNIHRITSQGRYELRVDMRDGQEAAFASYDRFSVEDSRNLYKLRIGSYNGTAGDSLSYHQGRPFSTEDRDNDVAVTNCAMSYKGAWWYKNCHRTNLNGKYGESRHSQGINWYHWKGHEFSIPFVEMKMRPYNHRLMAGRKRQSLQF
Method: as §1

[6] = target: T3, mouse tenascin-C rCd4-His-FBG; test: SPR steady state, captured Fab, 25 C
Method: as §1

[7] = target: T5, human tenascin-R rCd4-His-FBG; test: SPR steady state, captured Fab, 25 C
Method: as §1

Human FGB-rCd4 = target: T6, Human FGB-rCd4; test: ELISA (DELFIA), antigen coated on the well, purified Fab at 50 nM, detected with anti-kappa or anti-lambda mAb and Europium-conjugated anti-mouse mAb
T6 construct: Not the same construct as m1, which has the FBG at the C terminus; also called human TNC FBG-rCD4; human tenascin-C FBG-rCd4-His (FBG at the N terminus of the rat Cd4 tag); not shown: rat Cd4 (domains 3 and 4) tag, the C-terminal His6 tag and the vector-derived junction residues of pBIOCAM4
T6 chain: T1 sequence (chain (part 2 of 2))

fold stronger affinity than 2A5 [1]: ~100 fold | IC50, inhibition of Fc-His-HuFBG-evoked IL-8 release, THP1-Blue cells (human Fc-His-FBG): 6.9 nM | IC50, inhibition of Fc-His-HuFBG-evoked alkaline phosphatase, THP1-Blue cells (human Fc-His-FBG): 1.7 nM | Kd [2]: 0.111 nM | koff [2]: 0.0003 s⁻¹ | kon [2]: 2.66e+06 M⁻¹ s⁻¹ | Kd [3]: 13 nM | koff [3]: 0.0675 s⁻¹ | kon [3]: 5.22e+06 M⁻¹ s⁻¹ | Kd [4]: 7.9 nM | koff [4]: 0.0748 s⁻¹ | kon [4]: 9.46e+06 M⁻¹ s⁻¹ | Kd [5]: 33.9 nM | koff [5]: 0.0473 s⁻¹ | kon [5]: 1.4e+06 M⁻¹ s⁻¹ | Kd [6]: 18.7 nM | Kd [7]: 36.1 nM | binding result (Human FGB-rCd4): binds
B1: Fab B12 (Fab, V domains shown)
VH: QVQLVESGGGLVQPGRSLRLSCAASGFTFDDYAMHWVRQAPGKGLEWVSGISGSGGSTYYADSVKGRFTISRDNAKNSLYLQMNSLRAEDTALYYCAKDISAVPDTFDIWGQGTMVTVSS
VL: DIQMTQSPASLPTPVGDRVTITCRASQYIQGFLNWYQQKPGKAPKLLIYDASNLETGVPSRFSGSGSGTDFTLTISSLQPEDFATYYCQQSYSTPQTFGQGTKVDIKR
notes: monomeric Fab
